Assay results taken from publication PMC2248580.

Target: human activated blood coagulation factor X (FXa) (human)
Assay: SPR; […]; 37°C; HBS (10 mM Hepes, 150 mM NaCl, 5 mM CaCl2, 0.005% P20, pH 7.4); Langmuir fit; […]

Row | Substance | Kd | koff | kon
1 | bAhp, the basic PLA2 from Gloydious (Agkistrodon) halys pallas venom (from UniProt O42187 17-138) (enzyme) | 400 nM | 0.016 s⁻¹ | 40000 M⁻¹ s⁻¹
2 | CbII, the basic subunit of the CbI-CbII complex (β-neurotoxin) from Pseudocerastes fieldi venom (enzyme) | 20 nM | 0.0085 s⁻¹ | 420000 M⁻¹ s⁻¹
